From article PMC3118119, “Functional characterization of an alkaline exonuclease and single strand annealing protein from the SXT genetic element of Vibrio cholerae” (BMC Molecular Biology, 2011)
Where a name gives a salt, the structure may show the parent alone. Read-outs that look alike come from different tables or passages of the source.

Columns and labels:
[1] = target: SXT-Exo alkaline exonuclease (S066) from the SXT genetic element of Vibrio cholerae (SXT integrating conjugative element of Vibrio cholerae) (UniProt Q79S39); assay: SEC; Superdex 200 HR 10/300 GL, 25 mM Tris-HCl pH7.4, 150 mM NaCl, 1 mM EDTA, 5 mM imidazole, 0.4 ml/min, 4°C; column calibrated with protein standards; oligomer size from the apparent molecular weight
[2] = target: SXT-Exo (S066) (Vibrio cholerae, UniProt Q8KQV9); assay: quenched PicoGreen dsDNA exonuclease assay; type: biochemical
SXT-Exo (S066), sequence (Q8KQV9 1-338 limits assumed): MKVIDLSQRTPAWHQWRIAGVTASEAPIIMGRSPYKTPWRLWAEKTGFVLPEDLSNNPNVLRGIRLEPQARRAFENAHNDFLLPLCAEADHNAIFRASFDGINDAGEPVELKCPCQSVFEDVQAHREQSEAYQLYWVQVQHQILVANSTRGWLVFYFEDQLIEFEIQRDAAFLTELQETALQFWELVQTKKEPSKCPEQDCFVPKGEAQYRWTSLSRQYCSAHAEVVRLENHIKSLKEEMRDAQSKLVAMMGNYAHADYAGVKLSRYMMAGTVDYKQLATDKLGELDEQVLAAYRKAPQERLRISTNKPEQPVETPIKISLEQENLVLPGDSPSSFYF

[3] = target: Q79S39; assay: SEC; Superdex 200 HR 10/300 GL, 25 mM Tris-HCl pH7.4, 150 mM NaCl, 1 mM EDTA, 5 mM imidazole, 0.4 ml/min, 4°C; column calibrated with protein standards; oligomer size from the apparent molecular weight
[4] = target: P03697; assay: as above

With “SXT-Exo alkaline exonuclease (S066) from the SXT genetic element of Vibrio cholerae (from UniProt Q79S39 1-215) (enzyme)” the stoichiometry N [1] was 3.

Molecule `O=S(=O)(O)O` [sodium sulfate] has an IC50 ([2]; IC50) of ~20 mM.

In the case of `O=P(O)(O)O` [sodium phosphate], the IC50 ([2]; IC50) is reported as 25 mM.

`O=S(=O)(O)O` [potassium sulfate] showed an IC50 [2] of ~35 mM.

B1: SXT-Exo alkaline exonuclease (S066) from the SXT genetic element of Vibrio cholerae (protein)
chain: MKTLSERLNHALQLTGVTQSELARRIGIKQQSISQICSGKSARSRYTMQIAEALRVNAHWLATGDGEIGLGVGNVEVGPDIKGRIPLINWVQAGDWTEIAEGFAHEDAEEWREVTGKAHEGCFALRVKGDSMENPSGKKSIPEGAVIVVDPELPYSSGSLVVARLDDSKEATFKQLVIDGEQKYLKPLNPQYPAIPINGNCTIIGVVRQAIIDFW
In the case of B1, the “monomers per oligomer from the SEC apparent molecular weight” value [3] is reported as “corresponded to ca. 3.5 SXT-Exo monomers”.

B2: lambda-Exo alkaline exonuclease from bacteriophage lambda (protein)
chain: MTPDIILQRTGIDVRAVEQGDDAWHKLRLGVITASEVHNVIAKPRSGKKWPDMKMSYFHTLLAEVCTGVAPEVNAKALAWGKQYENDARTLFEFTSGVNVTESPIIYRDESMRTACSPDGLCSDGNGLELKCPFTSRDFMKFRLGGFEAIKSAYMAQVQYSMWVTRKNAWYFANYDPRMKREGLHYVVIERDEKYMASFDEIVPEFIEKMDEALAEIGFVFGEQWR
In the case of B2, the “monomers per oligomer from the SEC apparent molecular weight” value [4] is reported as “corresponded to 3.35 protein monomers”.
